Data on 16 molecules can be found in patent US20250049896A1 (Regeneron, published 2025).

One may read the Kd as a measure of binding affinity in units of concentration. The koff is the rate constant with which the complex falls apart. Broadly, the kon is a measure of how fast the partners come together. For orientation: t½ means how long it takes for the measured level to halve.

Where a chain is given by its changes, count along the chain named.

The target of test [1] is T1, mf TFRC ecto-mmh (REGN2054), monomeric monkey (cyno) Tfrc ectodomain with C-terminal myc-myc-hexahistidine tag (monkey (cyno), Macaca fascicularis, UniProt H9EXL1 89-760).
T1 construct: range 89-760; also called mfTfR-mmh; mfTFR-mmh
The test can be described thus: SPR (Biacore), mAb captured on anti-human Fc, 100 nM mfTfR-mmh, 25 C. As to the method: (§1) Biacore binding kinetics assays were conducted for the interaction of 32 anti-human TfR IgG1 monoclonal antibodies from CHO supernatants with TfR reagents at 25° C.
(§2) Equilibrium dissociation constants (KD) for the interaction of anti-TfR monoclonal antibodies with human and fascicularis monkey TfR ecto domain recombinant proteins were determined using a real-time surface plasmon resonance (SPR) based Biacore S200 biosensor. All binding studies were performed in 10 mM HEPES, 150 mM NaCl, 3 mM EDTA, and 0.05% v/v surfactant Tween-20, pH 7.4 (HBS-EP) running buffer at […]. The Biacore CM5 sensor surface was first derivatized by amine coupling with a monoclonal mouse anti-human Fc antibody (REGN2567) followed by a step to capture anti-TfR monoclonal antibodies in CHO conditioned media. […] The dissociation of TfR bound to anti-TfR monoclonal antibodies was monitored for 3 minutes in HBS-EP running buffer. At the end of each cycle, the anti-TfR monoclonal antibodies capture surface was regenerated using a 12-sec injection of 20 mM H₃PO₄. The association rate (ka) and dissociation rate (kd) were determined by fitting the real-time binding sensorgrams to a 1:1 binding model with mass transport limitation using Scrubber 2.0 c software. The dissociation equilibrium constant (KD) and dissociative half-life (t½) were calculated from the kinetic rate constants as: […]
(In SPR one partner is held on a chip, and binding of the other changes the refractive index at the surface.)

Test [2] deals with T2, hmm.hTfRC (REGN2431), human transferrin receptor extracellular domain with hexahistidine-myc-myc tag (human, UniProt P02786 89-760).
T2 construct: Monomeric recombinant protein, 79210 g/mol; also called hTFR-mmh; His-myc-myc-hTFRC ecto
The test can be described thus: SPR (Biacore), mAb captured on anti-human Fc, 100 nM hTFR-mmh, 25 C. The protocol: as §1, §2

Test [3] concerns the target T1, mf TFRC ecto-mmh (REGN2054), monomeric …. In words: SPR (Biacore), mAb from CHO supernatant captured on anti-human Fc, 100 nM mfTfR-mmh injected, 25 C. As to the method: as §1, §2
Test [4] deals with T3, Hmm-hTFRC (REGN2431), monomeric human transferrin receptor ectodomain with N-terminal hexahistidine-myc-myc … (human, UniProt P02786 89-760).
T3 construct: also called hmm.hTfR(C89-F763); His-myc-myc-hTFRC ecto
In words: blocking ELISA, supernatant; Hmm-hTFRC binding to immobilized human holo-Tf. A digest of the protocol: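 Plates were coated with anti-hTf goat pAb at 2 µg/mL overnight at 4 °C, then loaded with human holo-Tf at 1 µg/mL for 2 h at room temperature. Bound receptor was detected with TMB and absorbance read at 450 nm.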

T1 sequence (chain, as listed by the source): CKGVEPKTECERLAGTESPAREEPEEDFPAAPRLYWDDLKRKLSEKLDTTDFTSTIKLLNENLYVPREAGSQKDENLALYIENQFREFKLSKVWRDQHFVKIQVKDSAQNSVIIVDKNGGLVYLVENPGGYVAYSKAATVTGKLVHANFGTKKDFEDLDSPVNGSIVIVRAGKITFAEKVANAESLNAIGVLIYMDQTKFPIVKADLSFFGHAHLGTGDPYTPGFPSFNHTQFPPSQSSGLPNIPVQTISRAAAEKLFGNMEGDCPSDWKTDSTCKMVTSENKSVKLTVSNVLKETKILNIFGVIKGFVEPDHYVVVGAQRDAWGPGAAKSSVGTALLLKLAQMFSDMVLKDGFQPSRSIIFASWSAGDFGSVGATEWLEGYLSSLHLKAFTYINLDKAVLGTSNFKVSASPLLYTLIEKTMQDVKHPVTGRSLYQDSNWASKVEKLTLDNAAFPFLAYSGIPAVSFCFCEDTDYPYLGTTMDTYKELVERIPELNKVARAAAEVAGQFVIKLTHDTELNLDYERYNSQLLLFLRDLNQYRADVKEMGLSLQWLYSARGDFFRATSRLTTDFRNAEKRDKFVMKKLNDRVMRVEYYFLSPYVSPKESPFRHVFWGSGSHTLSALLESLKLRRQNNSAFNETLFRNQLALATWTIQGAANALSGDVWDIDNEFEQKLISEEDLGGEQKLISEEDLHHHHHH
T2 sequence (P02786 other isoform, or with tags, fused parts or gaps): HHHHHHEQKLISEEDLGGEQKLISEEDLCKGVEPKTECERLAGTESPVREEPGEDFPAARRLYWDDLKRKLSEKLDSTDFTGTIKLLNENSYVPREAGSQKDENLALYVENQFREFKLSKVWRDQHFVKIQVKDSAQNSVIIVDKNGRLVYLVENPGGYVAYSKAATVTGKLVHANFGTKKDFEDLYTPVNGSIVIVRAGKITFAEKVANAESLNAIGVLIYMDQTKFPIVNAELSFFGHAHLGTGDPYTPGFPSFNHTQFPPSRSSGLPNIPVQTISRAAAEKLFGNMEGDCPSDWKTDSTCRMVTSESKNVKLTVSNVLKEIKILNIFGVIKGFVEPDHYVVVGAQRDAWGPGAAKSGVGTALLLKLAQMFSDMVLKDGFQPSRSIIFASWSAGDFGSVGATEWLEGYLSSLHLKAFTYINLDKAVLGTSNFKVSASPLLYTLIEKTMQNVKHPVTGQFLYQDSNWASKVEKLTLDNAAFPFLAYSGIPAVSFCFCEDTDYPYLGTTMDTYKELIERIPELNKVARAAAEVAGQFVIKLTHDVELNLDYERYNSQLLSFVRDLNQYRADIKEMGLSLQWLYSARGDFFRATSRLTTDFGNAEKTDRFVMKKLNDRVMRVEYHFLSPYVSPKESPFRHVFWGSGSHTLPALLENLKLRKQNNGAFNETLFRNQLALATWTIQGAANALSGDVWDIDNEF
T3 sequence (P02786 other isoform, or with tags, fused parts or gaps): as above

B1: 69307 (antibody, human IgG1, kappa, V domains shown)
VH: EVQLVESGGGLVQPGGSLRLSCTASGFTFSNYWMTWVRQAPGKGLEWVANIKEDGSEKEYVDSVKGRFTISRDNAKNSLYLQMNSLRGEDTAVYYCARDGEQLVDYYYYYVMDVWGQGTTVTVSS
VL: DIQMTQSPSSVSASVGDRVTITCRASQGISSWLAWYQQKPGKAPKLLIYAASSLQSGVPSRFSGSGSGTDFTLTISSLQPEDFATYYCQKADSLPYAFGQGTKLEIKR
notes: Tested as bivalent human IgG1 from CHO primary supernatant
As for B1, in test [1], the “100 nM Ag Bound (RU)” value came to 3 RU. Further, in test [2], the “100 nM Ag Bound (RU)” value worked out at 1280 RU, the Kd was found to be 0.226 nM, the koff stood at 4.26e-05 s⁻¹ and the on-rate (kon) came out at 190000 M⁻¹ s⁻¹. The molecule further returned a t½ in test [2] of 271 min. Also, the binding result in test [3] was “no binding (tested: 100 nM)”.

B2: 69329 (antibody, human IgG1, kappa, V domains shown)
VH: B1 VH with T23A, E59D
VL: B1 VL with D92N, L94F, A97T
notes: as for B1
On to B2, for which the “100 nM Ag Bound (RU)” value in test [1] was 8 RU. Further, in test [2], the “100 nM Ag Bound (RU)” value stood at 1100 RU, binding was put at a Kd of 0.97 nM, the koff is 0.000186 s⁻¹ and the kon is 192000 M⁻¹ s⁻¹. The molecule also returned a t½ in test [2] of 62.2 min. The binding result in test [3] is recorded as “no binding (tested: 100 nM)”.

B3: 69326 scFv (VH-VK) (scFv)
chain: EVQLVESGGGLVQPGGSLRLSCAVSGFIFSSYEMNWVRQAPGKGLEWVSYISSSGSTIFYADSVKGRFTISRDNAKNSLYLQMNSLRAEDTAVYYCVSGVVLFDVWGQGTMVTVSSEIVMTQSPATLSVSPGERATLSCRASQSVSSNFAWYQQKPGQAPRLLIYSASSRATGIPVRFSGSGSGTEFTLTISSLQSEDFAVYYCQQYNIWPRTFGQGTKVEIK
Consider B3, for which the “% Blocking” value in test [4] was found to be 18%.

B4: 69340 scFv (VH-VK) (scFv)
chain: EVQLVESGGGLVQPGRSLRLSCAASGFTFDDKAMHWVRQVPGKGLEWISGISWNSGTIGYADSVKGRFIISRDNAKNSLYLQMNSLRAEDTALYYCAKDGDTSGWYWYGLDVWGQGTTVTVSSEIVLTQSPATLSLSPGERATLSCRASQSVSSYLAWYQQKPGQAPRLLIHDVSNRATGIPARFSGSGSGTDFTLTISSLEPEDFVVYYCQQRSDWPITFGQGTRLEIK
B4: the “% Blocking” value in test [4] amounted to 6%.

B5: 69348 scFv (VK-VH) (scFv)
scFv: DIQMTQSPSSLSASVGDRVTITCRASQSIRNVLGWFQQKPGKAPQRLIYAASSLQSGVPSRFSGSGSGTEFTLTISSLQPEDFATYYCLQHNFYPLTFGGGTKVEIKGGGGSGGGGSGGGGSQVQLVESGGGVVQPGRSLRLSCAASGFTFTTYGMHWVRQAPGKGLEWVAVIWYDGSNKYYGDSVKGRFTISRDNSKNTLYLQMNSLRVDDTAVYYCTRTHGYTRSSDGFDYWGQGTLVTVSS
notes: CHO supernatant; Vk-3xG4S-Vh
For the molecule B5, the “% Blocking” value in test [4] was 16%.

B6: 69332 scFv (VK-VH) (scFv)
scFv: AIQMTQSPSSLSASVGDRVTITCRASQGIRNDLGWYQQKPGKAPKLLIYAASTLQSGVPSRFSGSGSGTDFTLTISSLQPEDFATYYCLQDYNYPFTFGPGTKVDIKGGGGSGGGGSGGGGSQVTLRESGPALVKPSQTLTLTCTFSGFSLNTYGMFVSWIRQPPGKALEWLAHIHWDDDKYYSTSLKTRLTISKDTSKNQVVLTMTNMDPVDTATYYCARGHNNLNYIIHWGQGTLVTVSS
notes: CHO supernatant; Vk-3xG4S-Vh
On to B6, for which the “% Blocking” value in test [4] amounted to 22%.

B7: 69340 scFv (VK-VH) (scFv)
scFv: EIVLTQSPATLSLSPGERATLSCRASQSVSSYLAWYQQKPGQAPRLLIHDVSNRATGIPARFSGSGSGTDFTLTISSLEPEDFVVYYCQQRSDWPITFGQGTRLEIKGGGGSGGGGSGGGGSEVQLVESGGGLVQPGRSLRLSCAASGFTFDDKAMHWVRQVPGKGLEWISGISWNSGTIGYADSVKGRFIISRDNAKNSLYLQMNSLRAEDTALYYCAKDGDTSGWYWYGLDVWGQGTTVTVSS
notes: CHO supernatant; Vk-3xG4S-Vh
Regarding B7, the “% Blocking” value in test [4] was 13%.

B8: 69329 scFv (VH-VK) (scFv)
chain: EVQLVESGGGLVQPGGSLRLSCAASGFTFSNYWMTWVRQAPGKGLEWVANIKEDGSEKDYVDSVKGRFTISRDNAKNSLYLQMNSLRGEDTAVYYCARDGEQLVDYYYYYVMDVWGQGTTVTVSSDIQMTQSPSSVSASVGDRVTITCRASQGISSWLAWYQQKPGKAPKLLIYAASSLQSGVPSRFSGSGSGTDFTLTISSLQPEDFATYYCQKANSFPYTFGQGTKLEIK
In the case of B8, in test [4], the “% Blocking” value stood at 25%.

B9: 69331 scFv (VH-VK) (scFv)
chain: QVQLVESGGGVVQPGRSLRLSCIASGFTFSVYGIHWVRQAPGKGLEWMAVISHDGNIKHYADSVKGRFTISRDNSKNTLYLQINSLRTEDTAVYYCAKDTWNSLDTFDIWGQGTMVTVSSDIQLTQSPSSLSASVGDRVTITCWASQGISSYLAWYQQKPGKAPKLLIYAASTLQSGVPSRFSGSGSGTEFTLTISSLQPEDFATYYCQQLNSYPLTFGGGTKVEIK
For B9, in test [4], the “% Blocking” value amounted to 7%.

B10: 69340 Fab (Fab, V domains shown)
VH: EVQLVESGGGLVQPGRSLRLSCAASGFTFDDKAMHWVRQVPGKGLEWISGISWNSGTIGYADSVKGRFIISRDNAKNSLYLQMNSLRAEDTALYYCAKDGDTSGWYWYGLDVWGQGTTVTVSS
VL: EIVLTQSPATLSLSPGERATLSCRASQSVSSYLAWYQQKPGQAPRLLIHDVSNRATGIPARFSGSGSGTDFTLTISSLEPEDFVVYYCQQRSDWPITFGQGTRLEIKR
notes: CHO supernatant
Take B10: the “% Blocking” value in test [4] was 3%.

B11: 69331 scFv (VK-VH) (scFv)
scFv: DIQLTQSPSSLSASVGDRVTITCWASQGISSYLAWYQQKPGKAPKLLIYAASTLQSGVPSRFSGSGSGTEFTLTISSLQPEDFATYYCQQLNSYPLTFGGGTKVEIKGGGGSGGGGSGGGGSQVQLVESGGGVVQPGRSLRLSCIASGFTFSVYGIHWVRQAPGKGLEWMAVISHDGNIKHYADSVKGRFTISRDNSKNTLYLQINSLRTEDTAVYYCAKDTWNSLDTFDIWGQGTMVTVSS
notes: CHO supernatant; Vk-3xG4S-Vh
B11: in test [4], the “% Blocking” value amounted to 13%.

B12: 69348 Fab (Fab, V domains shown)
VH: QVQLVESGGGVVQPGRSLRLSCAASGFTFTTYGMHWVRQAPGKGLEWVAVIWYDGSNKYYGDSVKGRFTISRDNSKNTLYLQMNSLRVDDTAVYYCTRTHGYTRSSDGFDYWGQGTLVTVSS
VL: DIQMTQSPSSLSASVGDRVTITCRASQSIRNVLGWFQQKPGKAPQRLIYAASSLQSGVPSRFSGSGSGTEFTLTISSLQPEDFATYYCLQHNFYPLTFGGGTKVEIKR
notes: CHO supernatant
For B12, the “% Blocking” value in test [4] stood at 40%.

B13: 69331 Fab (Fab, V domains shown)
VH: QVQLVESGGGVVQPGRSLRLSCIASGFTFSVYGIHWVRQAPGKGLEWMAVISHDGNIKHYADSVKGRFTISRDNSKNTLYLQINSLRTEDTAVYYCAKDTWNSLDTFDIWGQGTMVTVSS
VL: DIQLTQSPSSLSASVGDRVTITCWASQGISSYLAWYQQKPGKAPKLLIYAASTLQSGVPSRFSGSGSGTEFTLTISSLQPEDFATYYCQQLNSYPLTFGGGTKVEIKR
notes: CHO supernatant
Turning to B13, the “% Blocking” value in test [4] was 9%.

B14: 69332 Fab (Fab, V domains shown)
VH: QVTLRESGPALVKPSQTLTLTCTFSGFSLNTYGMFVSWIRQPPGKALEWLAHIHWDDDKYYSTSLKTRLTISKDTSKNQVVLTMTNMDPVDTATYYCARGHNNLNYIIHWGQGTLVTVSS
VL: AIQMTQSPSSLSASVGDRVTITCRASQGIRNDLGWYQQKPGKAPKLLIYAASTLQSGVPSRFSGSGSGTDFTLTISSLQPEDFATYYCLQDYNYPFTFGPGTKVDIKR
notes: CHO supernatant
On to B14, for which the “% Blocking” value in test [4] turned out to be 18%.

B15: 69348 scFv (VH-VK) (scFv)
chain: QVQLVESGGGVVQPGRSLRLSCAASGFTFTTYGMHWVRQAPGKGLEWVAVIWYDGSNKYYGDSVKGRFTISRDNSKNTLYLQMNSLRVDDTAVYYCTRTHGYTRSSDGFDYWGQGTLVTVSSDIQMTQSPSSLSASVGDRVTITCRASQSIRNVLGWFQQKPGKAPQRLIYAASSLQSGVPSRFSGSGSGTEFTLTISSLQPEDFATYYCLQHNFYPLTFGGGTKVEIK
In the case of B15, the “% Blocking” value in test [4] turned out to be 0%.

B16: 69332 scFv (VH-VK) (scFv)
chain: QVTLRESGPALVKPSQTLTLTCTFSGFSLNTYGMFVSWIRQPPGKALEWLAHIHWDDDKYYSTSLKTRLTISKDTSKNQVVLTMTNMDPVDTATYYCARGHNNLNYIIHWGQGTLVTVSSAIQMTQSPSSLSASVGDRVTITCRASQGIRNDLGWYQQKPGKAPKLLIYAASTLQSGVPSRFSGSGSGTDFTLTISSLQPEDFATYYCLQDYNYPFTFGPGTKVDIK
Regarding B16, the “% Blocking” value in test [4] came to 6%.
